In the supplement of paper PMC9233669:
Variants at the floor of the assay were thinned out.

What was measured:
biotinyl-Phe-oxazolone = test: self-aminoacylation, catalytic enhancement (BFO) (fold over background); higher = more active; k-Seq, kA / k0A0; sequences stand for … in GGGAAUGGAUCCACAUCUACGAAUUC…UUCACUGCAGACUUGACGAAGCUG
Summary of the method: (§1)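 Mutagenized RNA pools with a 21-nt variable region (0.43 μM) reacted with each biotinyl-aminoacyl-oxazolone at 2–1250 μM. Reactions ran in 50 μL HEPES/NaCl/KCl/MgCl2/CaCl2 buffer with 5% acetonitrile, pH 6.9–7.0, for 90 minutes at room temperature. Streptavidin-captured RNA was quantified by triplicate qPCR and Illumina sequencing, and per-sequence fraction reacted was fit to a pseudo-first-order model with 1000 bootstraps. Catalytic enhancement is median kA divided by the uncatalyzed rate, the low-activity peak of a bimodal Gaussian fit.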

biotinyl-Leu-oxazolone = test: self-aminoacylation, catalytic enhancement (BLO) (fold over background); higher = more active; k-Seq, kA / k0A0; sequences stand for … in GGGAAUGGAUCCACAUCUACGAAUUC…UUCACUGCAGACUUGACGAAGCUG
Summary of the method: as §1

biotinyl-Val-oxazolone = test: self-aminoacylation, catalytic enhancement (BVO) (fold over background); higher = more active; k-Seq, kA / k0A0; sequences stand for … in GGGAAUGGAUCCACAUCUACGAAUUC…UUCACUGCAGACUUGACGAAGCUG
Summary of the method: as §1

biotinyl-Trp-oxazolone = test: self-aminoacylation, catalytic enhancement (BWO) (fold over background); higher = more active; k-Seq, kA / k0A0; sequences stand for … in GGGAAUGGAUCCACAUCUACGAAUUC…UUCACUGCAGACUUGACGAAGCUG
Summary of the method: as §1

biotinyl-Met-oxazolone = test: self-aminoacylation, catalytic enhancement (BMO) (fold over background); higher = more active; k-Seq, kA / k0A0; sequences stand for … in GGGAAUGGAUCCACAUCUACGAAUUC…UUCACUGCAGACUUGACGAAGCUG
Summary of the method: as §1

biotinyl-Ile-oxazolone = test: self-aminoacylation, catalytic enhancement (BIO) (fold over background); higher = more active; k-Seq, kA / k0A0; sequences stand for … in GGGAAUGGAUCCACAUCUACGAAUUC…UUCACUGCAGACUUGACGAAGCUG
Summary of the method: as §1

Sequence | self-aminoacylation (biotinyl-Phe-oxazolone) | self-aminoacylation (biotinyl-Leu-oxazolone) | self-aminoacylation (biotinyl-Val-oxazolone) | self-aminoacylation (biotinyl-Trp-oxazolone) | self-aminoacylation (biotinyl-Met-oxazolone) | self-aminoacylation (biotinyl-Ile-oxazolone)
AUGUUUGCUAAUAGUCGCCAG [Fam3.1 aminoacylation ribozyme variant] | 1.53 | 1.51 | 1.29 | 1.76 | 1.37 | 1.26
AUGUUUGCUAAUGGUCGCAAG [Fam3.1 aminoacylation ribozyme variant] | 1.63 | 1.02 | 0.934 | 1.13 | 0.875 | 1.16
AUGUUUGCUGAUAGUCGCAAG [Fam3.1 aminoacylation ribozyme variant] | 3.84 | 1.33 | 1.37 | 1.38 | 1.1 | 1.81
AUGUUUUCUAAUAGUCGCAAG [Fam3.1 aminoacylation ribozyme variant] | 2.58 | 1.52 | 1.2 | 2.2 | 1.62 | 1.62
AUUAACAUAGGUCAUCGGGUG [Fam2.2 aminoacylation ribozyme variant] | 38 | 7 | 3.51 | 6.55 | 6.29 | 3.92
AUUAACAUGGUCAUCGAGUGA [Fam2.1 aminoacylation ribozyme variant] | 26.1 | 6.1 | 3.23 | 8.43 | 5.53 | 3.41
AUUAACCAAGGUCAUCGGGUG [Fam2.2 aminoacylation ribozyme variant] | 43.2 | 9.4 | 4.19 | 6.8 | 7.25 | 3.81
AUUAACCUAGGUAAUCGGGUG [Fam2.2 aminoacylation ribozyme variant] | 12.5 | 2.3 | 1.66 | 2.42 | 2.62 | 1.78
AUUAACCUAGGUCACCGGGUG [Fam2.2 aminoacylation ribozyme variant] | 23.6 | 4.52 | 3.13 | 5.15 | 4.09 | 3.19
AUUAACCUAGGUCAGCGGGUG [Fam2.2 aminoacylation ribozyme variant] | 19 | 4.4 | 2.12 | 2.72 | 2.59 | 2.5
AUUAACCUAGGUCAUAGGGUG [Fam2.2 aminoacylation ribozyme variant] | 1.19 | 1.74 | 1.36 | 2.08 | 1.41 | 1.29
AUUAACCUAGGUCAUCAGGUG [Fam2.2 aminoacylation ribozyme variant] | 1.4 | 1.47 | 1.48 | 1.43 | 1.35 | 1.24
AUUAACCUAGGUCAUCGGGUU [Fam2.2 aminoacylation ribozyme variant] | 40.5 | 12.7 | 4.78 | 6.05 | 9.3 | 5.18
AUUAACCUAGGUCAUCGGUUG [Fam2.2 aminoacylation ribozyme variant] | 3.47 | 1.19 | 1.09 | 1.05 | 1.07 | 1.02
AUUAACCUAGGUCAUGGGGUG [Fam2.2 aminoacylation ribozyme variant] | 22.6 | 4.82 | 2.38 | 3.44 | 3.3 | 2.28
AUUAACCUAGGUCAUUGGGUG [Fam2.2 aminoacylation ribozyme variant] | 15.2 | 3.23 | 2.28 | 2.85 | 2.88 | 1.93
AUUAACCUAUGUCAUCGGGUG [Fam2.2 aminoacylation ribozyme variant] | 36 | 6.82 | 3.13 | 5.05 | 5.3 | 3.43
AUUAACCUCGGUCAUCGGGUG [Fam2.2 aminoacylation ribozyme variant] | 28.5 | 5.54 | 3.76 | 3.74 | 5.08 | 3.13
AUUAACCUGGUCAACGAGUGA [Fam2.1 aminoacylation ribozyme variant] | 22.5 | 5.45 | 2.85 | 6.7 | 5.37 | 2.78
AUUAACCUGGUCAUCCAGUGA [Fam2.1 aminoacylation ribozyme variant] | 18.6 | 4.45 | 2.56 | 5.64 | 4.16 | 2.38
AUUAACCUGGUCAUCGAGUGA [Fam2.1 aminoacylation ribozyme variant] | 8.46 | 7.64 | 4.02 | 8.57 | 7.3 | 3.97
